These results are taken from PMC5270677, “Quiescin-sulfhydryl oxidase inhibits prion formation in vitro” (Aging (Albany NY), 2016).

The assay addresses T1, Quiescin-sulfhydryl oxidase (QSOX), recombinant human (human, UniProt O00391 30-709).
T1 construct: also called Human Qsox; recombinant QSOX
T1 sequence (looked up): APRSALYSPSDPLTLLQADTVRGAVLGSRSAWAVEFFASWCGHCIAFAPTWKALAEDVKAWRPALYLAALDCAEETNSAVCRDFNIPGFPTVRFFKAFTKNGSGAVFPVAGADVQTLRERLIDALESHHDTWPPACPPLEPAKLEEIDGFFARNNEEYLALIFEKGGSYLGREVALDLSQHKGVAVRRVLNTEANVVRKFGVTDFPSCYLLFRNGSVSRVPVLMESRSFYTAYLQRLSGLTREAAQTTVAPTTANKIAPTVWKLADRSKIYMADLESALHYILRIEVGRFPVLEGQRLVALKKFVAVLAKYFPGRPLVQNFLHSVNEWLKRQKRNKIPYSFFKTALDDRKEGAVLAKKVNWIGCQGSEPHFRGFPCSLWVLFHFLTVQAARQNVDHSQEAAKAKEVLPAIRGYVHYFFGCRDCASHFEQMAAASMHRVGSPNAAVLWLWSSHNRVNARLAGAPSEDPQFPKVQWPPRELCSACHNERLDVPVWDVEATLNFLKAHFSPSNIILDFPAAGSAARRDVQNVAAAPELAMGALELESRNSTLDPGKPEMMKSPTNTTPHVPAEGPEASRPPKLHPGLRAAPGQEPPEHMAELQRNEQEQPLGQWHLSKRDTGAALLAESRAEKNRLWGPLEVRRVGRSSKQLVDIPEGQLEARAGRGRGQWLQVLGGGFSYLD
The experiment in a line: SPR; Biacore 3000; […]; 30 ul/min in PBS, 0.05% Tween 20, 3 mM EDTA at 25°C; 1:1 Langmuir model; […]. The conditions noted are these: both partners purified.

B1: recombinant full-length mouse PrP, MoPrP(23-230) (natural protein)
chain: not shown
notes: also called full-length moPrP (PrP23-231, in the abstract)
With B1, the Kd was found to be 2 nM, the koff was 6.81e-05 s⁻¹ and the kon worked out at 33400 M⁻¹ s⁻¹.

B2: recombinant full-length human PrP, HuPrP(23-231) (natural protein)
chain: not shown
Take B2: the Kd worked out at 1.7 nM, the koff turned out to be 2e-05 s⁻¹ and the kon was determined as 11800 M⁻¹ s⁻¹.

As usually defined, the Kd is the concentration at which binding is half-saturated. As a reminder, the koff is a measure of how fast the partners let go of each other. One may read the kon as the rate constant with which the complex forms.
